Reference: paper PMC6677818

Columns and labels:
[1] = molecular target: calcineurin, WT CN (CNA_(1–370):CNB_(1–170)) (human) (UniProt Q08209); assay: ITC; NHE1 or variants (30–50 µM, syringe) titrated into CN (5–10 µM, cell), 25 °C, 20 mM Tris–HCl pH 7.5, 100 mM NaCl, 1 mM CaCl2, 0.5 mM TCEP; single site-binding model
[2] = molecular target: calcineurin, WT CN (CNA_(1–370):CNB_(1–170)) (human) (UniProt Q08209)
[3] = molecular target: CNA alone (alpha isoform: H27-D348; two C-terminal Asp residues added) (human) (UniProt Q08209)
[4] = molecular target: CNAA variant (CNA: H155A/Y159A, CNB), crystallisation construct CNA M1-N370 H155A Y159A, CNB 16–170 (human) (UniProt Q08209)

Chain of UniProt Q08209 (Q08209 other isoform, or with tags, fused parts or gaps): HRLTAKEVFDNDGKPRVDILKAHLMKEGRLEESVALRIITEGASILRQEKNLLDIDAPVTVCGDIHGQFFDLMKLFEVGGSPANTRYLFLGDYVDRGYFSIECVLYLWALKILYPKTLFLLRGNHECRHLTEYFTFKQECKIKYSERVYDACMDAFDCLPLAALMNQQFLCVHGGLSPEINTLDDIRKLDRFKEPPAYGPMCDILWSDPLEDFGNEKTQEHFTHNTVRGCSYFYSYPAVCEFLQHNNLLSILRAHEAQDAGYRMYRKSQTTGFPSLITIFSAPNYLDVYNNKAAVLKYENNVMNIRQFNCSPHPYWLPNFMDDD

“NHE1ct_(Δ92RARA) (NHE1ctΔ92 698AAA700; R698A, R700A) (from UniProt P19634 680-723) (domain or fragment)” gave a Kd [1] of 21 nM and a dH [1] of -12.2 kcal/mol.
With “NHE1ct_(ATAP) (NHE1 I680-Q815, L684A, V686A) (from UniProt P19634 680-815) (domain or fragment)” the apparent in vitro dephosphorylation rate k (dephos) of pT779 of ERK2-phosphorylated NHE1ct variant by CN (NMR time course) [2] was 0.642 h^-1, the Kd [1] was 4800 nM and the dH [1] was -4.5 kcal/mol.
Work on “NHE1ct WT (human NHE1 I680-Q815) (from UniProt P19634 680-815) (domain or fragment)” yielded an apparent in vitro dephosphorylation rate k (dephos) of pT779 of ERK2-phosphorylated NHE1ct by CNA alone (NMR time course) [3] of 0.347 h^-1, an apparent in vitro dephosphorylation rate k (dephos) of pT779 of ERK2-phosphorylated NHE1ct by CNAA (NMR time course; 20:1 NHE1ct:CN, rate normalized using wt-NHE1ct) [4] of 0.06 h^-1 and a Kd [1] of 59 nM. It also gave a dH [1] of -12 kcal/mol and a stoichiometry N [1] of 1.
Work on “PxIxIT peptide (NHE1 E709-P727) (from UniProt P19634 709-727)” yielded a Kd [1] of 6500 nM and a dH [1] of -2.9 kcal/mol.
For “NHE1ct P782A (NHE1 I680-Q815) (from UniProt P19634 680-815) (domain or fragment)”, the apparent in vitro dephosphorylation rate k (dephos) of pT779 of ERK2-phosphorylated NHE1ct variant by CN (NMR time course) [2] was 0.028 h^-1, the Kd [1] was 48 nM and the dH [1] was -2.8 kcal/mol.
“NHE1ct_(ATAP/AVATAA) (NHE1 I680-Q815, L684A, V686A, P715A, I717A, I719A, D720A) (from UniProt P19634 680-815) (domain or fragment)” showed an apparent in vitro dephosphorylation rate k (dephos) of pT779 of ERK2-phosphorylated NHE1ct variant by CN (NMR time course) [2] of 0.811 h^-1.
“NHE1ct_(AVATAA) (NHE1 I680-Q815, P715A, I717A, I719A, D720A) (from UniProt P19634 680-815) (domain or fragment)” showed an apparent in vitro dephosphorylation rate k (dephos) of pT779 of ERK2-phosphorylated NHE1ct variant by CN (NMR time course) [2] of 0.011 h^-1, a Kd [1] of 2400 nM and a dH [1] of -7.6 kcal/mol.
“NHE1ctΔ92 (PVIVIT) (from UniProt P19634 680-723) (domain or fragment)” was tested, and the Kd [1] was 4 nM and the dH [1] was -9 kcal/mol.
With “NHE1ctΔ92 (NHE1 I680-S723) (from UniProt P19634 680-723) (domain or fragment)” the Kd [1] was 21 nM and the dH [1] was -8.5 kcal/mol.
